Laboratory results published in patent US20250002610A1 (Genmab, published 2025).

B1: IgG1-DR4-FERR (antibody, V domains shown)
VH: QVQLQESGPGLVKPSGTLSLTCAVSGGSISSYSWWSWIRQPPGKGLEWIGELYHSGSTNYNPSLKSRVTISVDKSKNQFSLKLRSVTAADTAVYYCVRGVATIDYWGQGTLVTVSS
VL: QSALTQPPSASGSPGQSVTISCTGTSSDVGGYNFVSWYQQDPGKAPKLLIYEVTKRPSGVPDRFSGSKSGNTASLTVSGLQAEDEADYYCSSYAGSNNVMFGGGTKLTVLG
notes: Bivalent monoclonal IgG1 lambda
B2: IgG1-b12 (antibody)
heavy: not shown
light: EIVLTQSPGTLSLSPGERATFSCRSSHSIRSRRVAWYQHKPGQAPRLVIHGVSNRASGISDRFSGSGSGTDFTLTITRVEPEDFALYYCQVYGASSYTFGQGTKLERKRTVAAPSVFIFPPSDEQLKSGTASVVCLLNNFYPREAKVQWKVDNALQSGNSQESVTEQDSKDSTYSLSSTLTLSKADYEKHKVYACEVTHQGLSSPVTKSFNRGEC
notes: HIV gp120 antibody b12 with wild-type IgG1 Fc; also called IgG-b12

Assays:
[1] = target: T1, cynomolgus monkey DR4 with death domain deletion on ExpiCHO-S cells (cynomolgus monkey (Macaca fascicularis)); assay: flow cytometry, ExpiCHO-S cells expressing cynomolgus monkey DR4, n = 3
T1 construct: also called cynomolgus DR4
T1 chain: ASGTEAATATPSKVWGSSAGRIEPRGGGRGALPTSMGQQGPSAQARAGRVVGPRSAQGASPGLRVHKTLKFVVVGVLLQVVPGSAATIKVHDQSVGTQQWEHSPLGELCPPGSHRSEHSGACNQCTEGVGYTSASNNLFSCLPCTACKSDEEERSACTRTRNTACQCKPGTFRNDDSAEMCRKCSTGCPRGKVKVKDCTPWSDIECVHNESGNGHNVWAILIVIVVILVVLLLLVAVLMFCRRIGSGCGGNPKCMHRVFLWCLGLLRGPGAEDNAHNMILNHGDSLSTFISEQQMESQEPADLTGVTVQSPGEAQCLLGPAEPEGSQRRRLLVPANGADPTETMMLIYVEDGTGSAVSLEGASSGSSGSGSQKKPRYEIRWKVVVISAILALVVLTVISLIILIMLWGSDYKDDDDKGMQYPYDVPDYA
Experimental: (§1) Binding of BisG1-FAPα-FERL/DR4-FERR, BisG1-DR4-FEAL/b12-FEAR and IgG1-DR4-FERR to DR4 of various species commonly used for nonclinical toxicology studies was assessed by flow cytometry using ExpiCHO-S cells transiently expressing DR4 from different animal species. In contrast to other species, rodents only express one DR which has highest homology with human DR5. Therefore, ExpiCHO-S cells transiently expressing rat and mouse DR protein were used instead. All DR constructs lack the intracellular DD to avoid apoptosis of transfected cells upon DR(4) activation. IgG1-b12 was used as negative control.

[2] = target: T1, cynomolgus monkey DR4 with death domain …; assay: flow cytometry, ExpiCHO-S cells expressing cynomolgus monkey DR4, n = 2
Experimental: as §1

[3] = target: T1, cynomolgus monkey DR4 with death domain …; assay: flow cytometry, ExpiCHO-S cells expressing cynomolgus monkey DR4, average ± SEM
Experimental: as §1

[4] = target: T2, human DR4 (Death Receptor 4), cell surface expressed on human tumor cell lines (human, UniProt O00220 24-468); assay: flow cytometry, HCT-15 cells, average ± SEM; HCT-15 cells, average of n = 3
T2 construct: also called TNFRSF10A; TRAIL-R1
T2 sequence: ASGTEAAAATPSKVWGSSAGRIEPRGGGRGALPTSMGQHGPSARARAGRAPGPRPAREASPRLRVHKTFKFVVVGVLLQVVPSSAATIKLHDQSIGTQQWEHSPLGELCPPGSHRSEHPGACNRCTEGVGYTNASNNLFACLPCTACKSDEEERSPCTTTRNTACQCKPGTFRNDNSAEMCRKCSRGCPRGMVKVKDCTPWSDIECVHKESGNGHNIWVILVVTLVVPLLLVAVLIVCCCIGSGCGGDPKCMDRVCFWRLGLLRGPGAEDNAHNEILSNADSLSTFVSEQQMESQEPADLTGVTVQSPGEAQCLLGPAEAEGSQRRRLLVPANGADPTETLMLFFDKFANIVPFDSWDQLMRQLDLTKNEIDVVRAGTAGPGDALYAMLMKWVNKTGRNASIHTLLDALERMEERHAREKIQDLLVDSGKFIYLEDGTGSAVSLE

[5] = target: T3, His-tagged recombinant human FAPα (R&D Systems, Cat #3715-SE) (human, UniProt Q12884 26-760); assay: BLI sandwich cross-block assay
T3 construct: not shown: His tag
T3 sequence (looked up): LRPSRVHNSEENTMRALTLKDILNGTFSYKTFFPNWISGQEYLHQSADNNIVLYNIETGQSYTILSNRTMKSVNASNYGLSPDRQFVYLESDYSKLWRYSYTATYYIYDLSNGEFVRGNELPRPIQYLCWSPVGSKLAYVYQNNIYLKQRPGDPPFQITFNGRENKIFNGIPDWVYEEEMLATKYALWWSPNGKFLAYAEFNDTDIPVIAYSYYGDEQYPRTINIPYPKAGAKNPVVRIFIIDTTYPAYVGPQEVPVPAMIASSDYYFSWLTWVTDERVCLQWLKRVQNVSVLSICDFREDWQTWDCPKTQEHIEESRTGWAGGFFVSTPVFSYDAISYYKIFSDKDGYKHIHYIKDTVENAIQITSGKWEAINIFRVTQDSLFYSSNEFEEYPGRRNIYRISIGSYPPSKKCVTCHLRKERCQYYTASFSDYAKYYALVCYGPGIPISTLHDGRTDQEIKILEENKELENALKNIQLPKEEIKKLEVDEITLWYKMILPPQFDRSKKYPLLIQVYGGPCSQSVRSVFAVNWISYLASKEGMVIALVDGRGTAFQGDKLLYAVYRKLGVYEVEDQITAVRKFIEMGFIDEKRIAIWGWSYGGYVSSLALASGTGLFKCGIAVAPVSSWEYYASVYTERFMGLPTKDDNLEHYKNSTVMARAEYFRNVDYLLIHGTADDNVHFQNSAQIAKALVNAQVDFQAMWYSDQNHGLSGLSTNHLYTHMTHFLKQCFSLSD
Experimental: Sandwich cross-block experiments were carried out while shaking at 1,000 RPM at 30° C. […] The activated AR2G sensors were loaded with 10 μg/mL of the first antibody in 10 mM Sodium Acetate pH 6.0 (ForteBio, cat. no. 18-1070) for 600 s and quenched with 1 M ethanolamine pH 8.5 (ForteBio, Cat. #18-1071) for 300 s. After a baseline measurement in Sample Diluent (30 s; FortéBio, Cat. #18-1048), the AR2G biosensors containing immobilized antibodies were loaded for 200 s with His-tagged recombinant human FAPα (R&D Systems, Cat #3715-SE, 100 nM in Sample Diluent) for 200 s. The theoretical molecular mass of His-tagged recombinant human FAPα protein based on the amino acid sequence (86 kDa) was used for calculations. The association (200 s) of a second antibody (5 μg/mL in Sample Diluent) was determined. Sensors were regenerated by exposure to 10 mM glycine pH 2.5 (Riedl-deHaen, Cat. #15527) for 5 s, followed by neutralization in Sample Diluent for 5 s; both steps were repeated twice. Subsequently, the sensors containing immobilized first antibody were used again, starting with the baseline step.
Data were acquired using Data Acquisition Software v9 (ForteBio) and analyzed with Data Analysis HT Software v9 (ForteBio). The Y-axis was aligned to the start of the association step and Savitzky-Golay filtering was applied. […]

Row | Binder | EC50 [1] [µg/mL] | EC50 [2] [µg/mL] | EC50 [3] [µg/mL] | EC50 [4] [µg/mL] | binding result [5]
1 | B1 | 1.01 | 1.94 | 1.84 | 0.17 | –
2 | B2 | – | – | – | – | no binding
